Laboratory results from article PMC6278290, “Biochemical and Functional Characterization of Anthocyanidin Reductase (ANR) from Mangifera indica L” (Molecules, 2018).
Numbering of substitutions follows the chain as printed. Names and notes keep the numbering of the source.

B1: MiANR1-3 (Mangifera indica; S2A) (protein)
chain: MAAQQTAKNTACVVGGTGFVASLLIKLLLQKGYSVSTTVRDPDNQQKISHLLSLQELGELKIFGADLTDEGSFDAPIAGSDIVFHVATPVNFASEDPENDMIKPAIQGVENVLKACAKAKTVKRVILTSSAAAVTINNQDGTGLVMDEKHWTDVEFLSSAKPPTWGYPVSKTLAERHAWKFAQENNIDLITIIPSLMAGPSLTPDIPSSLNLAMSLISGNEFLTNALKGMQMLSGSISIAHVEDVCRAHIFLAEKESASGRYICCAVNTSVPELAKFLHQRYPQYKVPTDFGDFPSKPKLLISSGKLISEGFSFKFGIEEIYDQTVEYFKAKGVL
notes: S2A from the NcoI site; C-terminal His6 tag (pET28b), E. coli BL21(DE3) pLysS, Ni-NTA purified; about 37 kDa on SDS-PAGE
B2: MiANR1-2 (Mangifera indica; S2A) (protein)
chain: B1 chain with V169A, H279Q, G305E
notes: as for B1
B3: MiANR1-1 (Mangifera indica; S2A) (protein)
chain: B1 chain with D43G, Q46K, E110G, V169A, E184D, H279Q, G305E
notes: as for B1

Assays:
purified protein [1] = substrate: NC(=O)C1=CN([C@@H]2O[C@H](COP(=O)(O)OP(=O)(O)OC[C@H]3O[C@@H](n4cnc5c(N)ncnc54)[C@H](OP(=O)(O)O)[C@@H]3O)[C@@H](O)[C@H]2O)C=CC1; experiment: purified protein; type: biochemical, Mangifera indica; details: 100 μM cyanidin, 100 mM citrate buffer pH 4.0, 30 °C, 20 min, substrate inhibition at 1.25-3.75 mM, varied: cofactor
purified protein [2] = substrate: Oc1cc(O)c2cc(O)c(-c3ccc(O)c(O)c3)[o+]c2c1; experiment: purified protein; type: biochemical, Mangifera indica; details: 1 mM NADPH, 20 min
[3] = 100 mM citrate buffer pH 4.0, 30 °C
[4] = 100 mM phosphate buffer pH 3.0, 30 °C

Row | Protein | Km (purified protein [1]) [µM] | Vmax (purified protein [1]) [µmol/min/mg] | Km (purified protein [2]; [3]) [µM] | kcat/Km (purified protein [2]; [3]) [M⁻¹ s⁻¹] | Km (purified protein [2]; [4]) [µM] | kcat/Km (purified protein [2]; [4]) [M⁻¹ s⁻¹]
1 | B1 | 18.98 ± 1.18 | 0.019 | 80.43 ± 5.85 | 401000 | – | –
2 | B2 | 18.14 ± 1.4 | 0.0227 | 116.4 ± 4.42 | 363000 | – | –
3 | B3 | – | – | – | – | 48.32 ± 3.45 | 330000
